In patent publication US9249224B2 (RINAT NEUROSCIENCE CORP., priority 2011, dated 2016):

Tests used:
hGHR-hFc = biological target: T1, hGHR-hFc (Homo sapiens, UniProt P10912); experiment: Biacore kinetics and affinity, immobilized hGHR-hFc, Fab analyte, 37° C.; assay type: binding; conditions: hGHR-hFc captured on anti-human Fc surface
T1 construct: purchased R&D Systems 1210-GR
Protocol: (§1) The affinity of GHR antibody SS1 Fab to human and cyno GHR was measured on a Biacore™ T200 biosensor (GE Lifesciences™, Piscataway N.J.).
An anti-human Fc sensor chip was prepared by activating all flow cells of a Biacore™ CM4 sensor chip with a 1:1 (v/v) mixture of 400 mM EDC and 100 mM NHS for 7 minutes, at a flow rate of 10 μL/min. An anti-human Fc reagent (goat F(ab′)2 fragment to human IgG Fc, Cappel Catalog #55053) was diluted to 60 μg/mL in 10 mM sodium acetate pH 5.0 and injected on all flow cells for 7 minutes at 20 μL/min. All flow cells were blocked with 100 mM ethylenediamine in 150 mM borate buffer pH 8.5 for 7 minutes at 10 μL/min.
The kinetics assay was run using a methodology with varying dissociation times as described in Katsamba et al., supra. The hGHR-hFc fusion protein (R&D Systems™ Catalog#1210-GR) was captured onto downstream flow cells at 2 μg/mL at a flow rate of 10 μL/min for 30 seconds, 1 minute and 2 minutes on flow cells 2, 3 and 4, respectively. Flow cell 1 was used as a reference surface. […] After the analyte injection, dissociation was monitored for 30 minutes (400 nM Fab cycle) or 60 seconds (all other cycles) followed by regeneration with two 30-second injections of 75 mM phosphoric acid. A 5-membered dilution series of Fab was analyzed using this method, where the top concentration was 400 nM and the dilution factor was 3-fold. […]

human GHR = biological target: T2, human GHR (Homo sapiens, UniProt P10912); experiment: Biacore kinetics and affinity, immobilized Fab, human GHR analyte, 37° C.; assay type: binding; conditions: Fab captured on anti-human kappa surface
T2 construct: his-tagged monomers of amino acids 31-235 of the extracellular domain of the human or cyno GHR
T2 sequence (P10912 49-253): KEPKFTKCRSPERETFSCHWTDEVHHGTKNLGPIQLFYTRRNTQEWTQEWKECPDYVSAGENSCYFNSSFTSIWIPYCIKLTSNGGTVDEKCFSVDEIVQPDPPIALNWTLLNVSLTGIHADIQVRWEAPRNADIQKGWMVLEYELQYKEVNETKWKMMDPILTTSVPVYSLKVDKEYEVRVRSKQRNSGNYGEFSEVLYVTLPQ
Protocol: as §1
(§2) An anti-human kappa sensor chip was prepared by activating all flow cells of a Biacore™ CM4 sensor chip with a 1:1 (v/v) mixture of 400 mM EDC and 100 mM NHS for 7 minutes, at a flow rate of 10 μL/min. An anti-human kappa reagent (goat F(ab′)2 fragment anti-human kappa, Southern Biotech Catalog #2063-01) was diluted to 50 μg/mL in 10 mM sodium acetate pH 4.5 and injected on all flow cells for 7 minutes at 20 μL/min. All flow cells were blocked with 100 mM ethylenediamine in 150 mM borate buffer pH 8.5 for 7 minutes at 10 μL/min.
(§3) The kinetics assay was run using a methodology with varying dissociation times as described in Katsamba et al., supra. Fabs were captured onto downstream flow cells (flow cells 2, 3 and 4) at 2 μg/mL at a flow rate of 10 μL/min for 2 minutes. Different Fabs were captured on each flow cell. Flow cell 1 was used as a reference surface. […] After the analyte injection, dissociation was monitored for 30 minutes (for the 133 nM and 400 nM GHR cycles) or 60 seconds (all other cycles) followed by regeneration with three 30-second injections of 10 mM glycine pH 1.7. A 6-membered dilution series of GHR was analyzed using this method, where the top concentration was 400 nM and the dilution factor was 3-fold. […]

cyno GHR = experiment: Biacore kinetics and affinity, immobilized Fab, cyno GHR analyte, 37° C.; assay type: binding, cynomolgus monkey; conditions: Fab captured on anti-human kappa surface
Protocol: as §1, §2, §3

T1 sequence (P10912 with tags, fused parts or gaps limits assumed): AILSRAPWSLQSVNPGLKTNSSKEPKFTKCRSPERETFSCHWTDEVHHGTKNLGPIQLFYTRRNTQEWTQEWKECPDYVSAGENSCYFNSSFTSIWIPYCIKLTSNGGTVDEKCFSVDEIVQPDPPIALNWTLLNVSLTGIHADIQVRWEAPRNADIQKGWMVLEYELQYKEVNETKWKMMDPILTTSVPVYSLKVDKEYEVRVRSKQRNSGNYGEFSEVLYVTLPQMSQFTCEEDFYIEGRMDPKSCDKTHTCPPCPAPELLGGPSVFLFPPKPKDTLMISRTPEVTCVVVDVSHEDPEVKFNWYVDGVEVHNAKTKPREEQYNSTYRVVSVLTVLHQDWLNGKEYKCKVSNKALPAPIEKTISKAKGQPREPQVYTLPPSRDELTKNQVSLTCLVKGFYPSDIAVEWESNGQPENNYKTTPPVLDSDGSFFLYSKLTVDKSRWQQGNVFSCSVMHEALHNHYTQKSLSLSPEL
Chain of cyno GHR (as listed by the source): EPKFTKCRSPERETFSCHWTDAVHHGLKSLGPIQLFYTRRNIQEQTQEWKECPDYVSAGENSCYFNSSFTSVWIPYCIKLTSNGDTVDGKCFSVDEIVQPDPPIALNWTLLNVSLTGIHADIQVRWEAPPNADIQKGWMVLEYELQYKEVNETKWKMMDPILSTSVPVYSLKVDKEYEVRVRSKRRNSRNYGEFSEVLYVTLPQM

B1: SS1 Fab: Fab of GHR antibody SS1 (antibody, V domains shown)
VH: EVQLVESGGGLVKPGGSLRLSCAASGFTFSDAWMDWVRQAPGKGLEWVAEIRSKANYHATYYAESVKGRFTISRDDSKNTLYLQMNSLKTEDTAVYYCTLIRDYWGQGTLVTVSS
VL: EIVLTQSPGTLSLSPGERATLSCTATSSVSSSYLNWYQQKPGQAPRLLIYSTSNLASGIPDRFSGSGSGTDFTLTISRLEPEDFAVYYCHQYHRSTPTFGGGTKVEIK
ka (hGHR-hFc): 374000 M⁻¹ s⁻¹ | kd (hGHR-hFc): 0.000359 s⁻¹ | ka (human GHR): 138000 M⁻¹ s⁻¹ | kd (human GHR): 0.000215 s⁻¹ | ka (cyno GHR): 182000 M⁻¹ s⁻¹ | kd (cyno GHR): 0.000576 s⁻¹
